This note sets out measurements from IntAct's records for PubMed 31515488.

First the molecules themselves.
B1: Myogenin (Homo sapiens), P15173 (parent)
chain: MELYETSPYFYQEPRFYDGENYLPVHLQGFEPPGYERTELTLSPEAPGPLEDKGLGTPEHCPGQCLPWACKVCKRKSVSVDRRRAATLREKRRLKKVNEAFEALKRSTLLNPNQRLPKVEILRSAIQYIERLQALLSSLNQEERDLRYRGGGGPQPGVPSECSSHSASCSPEWGSALEFSANPGDHLLTADPTDAHNLHSLTSIVDSITVEDVSVAFPDETMPN
B2: NADPH oxidase activator 1 (Homo sapiens), Q86UR1 (parent)
chain: MASLGDLVRAWHLGAQAVDRGDWARALHLFSGVPAPPARLCFNAGCVHLLAGDPEAALRAFDQAVTKDTCMAVGFFQRGVANFQLARFQEALSDFWLALEQLRGHAAIDYTQLGLRFKLQAWEVLHNVASAQCQLGLWTEAASSLREAMSKWPEGSLNGLDSALDQVQRRGSLPPRQVPRGEVFRPHRWHLKHLEPVDFLGKAKVVASAIPDDQGWGVRPQQPQGPGANHDARSLIMDSPRAGTHQGPLDAETEVGADRCTSTAYQEQRPQVEQVGKQAPLSPGLPAMGGPGPGPCEDPAGAGGAGAGGSEPLVTVTVQCAFTVALRARRGADLSSLRALLGQALPHQAQLGQLSYLAPGEDGHWVPIPEEESLQRAWQDAAACPRGLQLQCRGAGGRPVLYQVVAQHSYSAQGPEDLGFRQGDTVDVLCEVDQAWLEGHCDGRIGIFPKCFVVPAGPRMSGAPGRLPRSQQGDQP
B3: Asparagine synthetase [glutamine-hydrolyzing] (Homo sapiens), P08243 (parent)
chain: MCGIWALFGSDDCLSVQCLSAMKIAHRGPDAFRFENVNGYTNCCFGFHRLAVVDPLFGMQPIRVKKYPYLWLCYNGEIYNHKKMQQHFEFEYQTKVDGEIILHLYDKGGIEQTICMLDGVFAFVLLDTANKKVFLGRDTYGVRPLFKAMTEDGFLAVCSEAKGLVTLKHSATPFLKVEPFLPGHYEVLDLKPNGKVASVEMVKYHHCRDVPLHALYDNVEKLFPGFEIETVKNNLRILFNNAVKKRLMTDRRIGCLLSGGLDSSLVAATLLKQLKEAQVQYPLQTFAIGMEDSPDLLAARKVADHIGSEHYEVLFNSEEGIQALDEVIFSLETYDITTVRASVGMYLISKYIRKNTDSVVIFSGEGSDELTQGYIYFHKAPSPEKAEEESERLLRELYLFDVLRADRTTAAHGLELRVPFLDHRFSSYYLSLPPEMRIPKNGIEKHLLRETFEDSNLIPKEILWRPKEAFSDGITSVKNSWFKILQEYVEHQVDDAMMANAAQKFPFNTPKTKEGYYYRQVFERHYPGRADWLSHYWMPKWINATDPSARTLTHYKSAVKA
partner: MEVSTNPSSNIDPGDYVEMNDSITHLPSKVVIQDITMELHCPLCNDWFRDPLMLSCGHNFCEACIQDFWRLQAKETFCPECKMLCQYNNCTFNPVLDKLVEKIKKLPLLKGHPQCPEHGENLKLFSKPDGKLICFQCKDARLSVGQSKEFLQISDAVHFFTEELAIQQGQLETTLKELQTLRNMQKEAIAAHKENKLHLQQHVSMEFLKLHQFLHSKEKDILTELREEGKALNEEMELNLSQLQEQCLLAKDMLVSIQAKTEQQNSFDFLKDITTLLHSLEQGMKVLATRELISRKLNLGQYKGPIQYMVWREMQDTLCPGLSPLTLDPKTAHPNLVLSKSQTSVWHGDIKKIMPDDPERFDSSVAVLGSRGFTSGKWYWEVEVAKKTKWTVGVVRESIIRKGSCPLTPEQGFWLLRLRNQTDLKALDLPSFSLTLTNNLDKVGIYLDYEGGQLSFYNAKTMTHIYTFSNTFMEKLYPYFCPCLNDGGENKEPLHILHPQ
B4: Eukaryotic translation initiation factor 4E-binding protein 2 (Homo sapiens), Q13542 (parent)
chain: MSSSAGSGHQPSQSRAIPTRTVAISDAAQLPHDYCTTPGGTLFSTTPGGTRIIYDRKFLLDRRNSPMAQTPPCHLPNIPGVTSPGTLIEDSKVEVNNLNNLNNHDRKHAVGDDAQFEMDI
B5: Vacuolar protein-sorting-associated protein 25 (Homo sapiens), Q9BRG1 (parent)
chain: MAMSFEWPWQYRFPPFFTLQPNVDTRQKQLAAWCSLVLSFCRLHKQSSMTVMEAQESPLFNNVKLQRKLPVESIQIVLEELRKKGNLEWLDKSKSSFLIMWRRPEEWGKLIYQWVSRSGQNNSVFTLYELTNGEDTEDEEFHGLDEATLLRALQALQQEHKAEIITVSDGRGVKFF
partner: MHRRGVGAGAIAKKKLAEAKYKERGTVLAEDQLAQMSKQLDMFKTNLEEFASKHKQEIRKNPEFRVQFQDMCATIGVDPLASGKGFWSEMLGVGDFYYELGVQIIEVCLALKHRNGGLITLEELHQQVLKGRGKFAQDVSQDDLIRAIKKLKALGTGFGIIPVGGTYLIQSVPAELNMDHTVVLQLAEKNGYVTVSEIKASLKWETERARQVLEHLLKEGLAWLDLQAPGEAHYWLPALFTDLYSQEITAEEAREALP
B6: Protein LDOC1 (Homo sapiens), O95751 (parent)
chain: MVDELVLLLHALLMRHRALSIENSQLMEQLRLLVCERASLLRQVRPPSCPVPFPETFNGESSRLPEFIVQTASYMLVNENRFCNDAMKVAFLISLLTGEAEEWVVPYIEMDSPILGDYRAFLDEMKQCFGWDDDEDDDDEEEEDDY
partner: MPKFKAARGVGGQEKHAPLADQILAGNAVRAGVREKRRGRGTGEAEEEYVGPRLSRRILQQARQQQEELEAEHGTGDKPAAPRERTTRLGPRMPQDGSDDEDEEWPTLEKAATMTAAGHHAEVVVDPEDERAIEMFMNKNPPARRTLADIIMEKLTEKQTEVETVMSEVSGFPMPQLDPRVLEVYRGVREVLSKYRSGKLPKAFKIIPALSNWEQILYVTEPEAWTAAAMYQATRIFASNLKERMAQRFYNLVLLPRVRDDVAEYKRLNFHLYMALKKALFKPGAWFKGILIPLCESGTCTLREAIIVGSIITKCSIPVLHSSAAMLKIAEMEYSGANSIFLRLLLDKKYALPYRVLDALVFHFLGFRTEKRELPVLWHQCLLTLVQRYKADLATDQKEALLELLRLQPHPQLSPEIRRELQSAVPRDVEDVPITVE
B7: Keratin-associated protein 5-9 (Homo sapiens), P26371 (parent)
chain: MGCCGCSGGCGSSCGGCDSSCGSCGSGCRGCGPSCCAPVYCCKPVCCCVPACSCSSCGKRGCGSCGGSKGGCGSCGCSQCSCCKPCCCSSGCGSSCCQCSCCKPYCSQCSCCKPCCSSSGRGSSCCQSSCCKPCCSSSGCGSSCCQSSCCKPCCSQSRCCVPVCYQCKI
partner: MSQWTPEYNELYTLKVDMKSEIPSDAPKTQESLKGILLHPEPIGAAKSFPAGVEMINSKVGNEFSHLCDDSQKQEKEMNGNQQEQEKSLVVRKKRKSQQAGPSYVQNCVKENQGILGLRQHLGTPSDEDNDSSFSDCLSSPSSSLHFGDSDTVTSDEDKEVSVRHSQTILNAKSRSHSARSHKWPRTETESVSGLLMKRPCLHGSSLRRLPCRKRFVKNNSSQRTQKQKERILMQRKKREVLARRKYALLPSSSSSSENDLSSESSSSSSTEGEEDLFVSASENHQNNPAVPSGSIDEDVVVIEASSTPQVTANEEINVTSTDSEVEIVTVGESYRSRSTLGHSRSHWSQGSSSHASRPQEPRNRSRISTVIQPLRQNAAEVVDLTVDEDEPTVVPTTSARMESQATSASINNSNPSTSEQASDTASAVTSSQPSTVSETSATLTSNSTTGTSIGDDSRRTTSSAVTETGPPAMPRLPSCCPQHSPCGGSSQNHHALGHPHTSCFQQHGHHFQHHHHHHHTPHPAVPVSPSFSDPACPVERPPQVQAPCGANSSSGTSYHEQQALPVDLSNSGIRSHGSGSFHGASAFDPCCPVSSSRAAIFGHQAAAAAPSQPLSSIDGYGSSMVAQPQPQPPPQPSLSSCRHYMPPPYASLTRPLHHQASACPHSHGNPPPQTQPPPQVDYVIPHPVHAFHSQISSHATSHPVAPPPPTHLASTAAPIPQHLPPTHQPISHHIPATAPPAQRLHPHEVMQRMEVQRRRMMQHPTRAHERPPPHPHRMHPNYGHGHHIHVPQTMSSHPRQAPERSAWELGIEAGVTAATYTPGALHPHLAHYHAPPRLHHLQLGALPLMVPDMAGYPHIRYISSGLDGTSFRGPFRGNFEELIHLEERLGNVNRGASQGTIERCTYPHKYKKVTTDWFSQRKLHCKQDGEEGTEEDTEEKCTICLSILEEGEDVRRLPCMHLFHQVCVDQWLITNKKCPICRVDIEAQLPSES
B8: TBC1 domain family member 7 (Homo sapiens), Q9P0N9 (parent)
chain: MTEDSQRNFRSVYYEKVGFRGVEEKKSLEILLKDDRLDTEKLCTFSQRFPLPSMYRALVWKVLLGILPPHHESHAKVMMYRKEQYLDVLHALKVVRFVSDATPQAEVYLRMYQLESGKLPRSPSFPLEPDDEVFLAIAKAMEEMVEDSVDCYWITRRFVNQLNTKYRDSLPQLPKAFEQYLNLEDGRLLTHLRMCSAAPKLPYDLWFKRCFAGCLPESSLQRVWDKVVSGSCKILVFVAVEILLTFKIKVMALNSAEKITKFLENIPQDSSDAIVSKAIDLWHKHCGTPVHSS
partner: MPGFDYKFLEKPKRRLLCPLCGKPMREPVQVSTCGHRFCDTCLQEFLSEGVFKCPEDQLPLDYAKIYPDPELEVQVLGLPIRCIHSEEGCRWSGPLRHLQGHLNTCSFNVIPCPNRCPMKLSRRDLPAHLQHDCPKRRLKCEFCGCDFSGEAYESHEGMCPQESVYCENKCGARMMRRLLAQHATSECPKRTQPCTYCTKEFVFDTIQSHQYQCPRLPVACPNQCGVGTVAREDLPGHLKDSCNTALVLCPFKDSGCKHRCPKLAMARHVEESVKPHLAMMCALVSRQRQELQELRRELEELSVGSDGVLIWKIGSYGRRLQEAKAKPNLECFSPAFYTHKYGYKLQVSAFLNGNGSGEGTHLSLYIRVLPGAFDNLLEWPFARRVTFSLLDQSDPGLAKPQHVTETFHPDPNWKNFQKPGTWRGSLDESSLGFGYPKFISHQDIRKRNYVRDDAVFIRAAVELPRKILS

In the first test the parent is B1. To be noted: with fril_human FTL.
For the variant P49H, the “effect of a mutation on the interaction” value is recorded as “with no effect”.
Still for that read-out and setting: the value for R147C was “with no effect”.

The variants in the next test derive from B1. To be noted: with if4e2_human EIF4E2, O60573.
if4e2_human EIF4E2, O60573, sequence (O60573 whole entry): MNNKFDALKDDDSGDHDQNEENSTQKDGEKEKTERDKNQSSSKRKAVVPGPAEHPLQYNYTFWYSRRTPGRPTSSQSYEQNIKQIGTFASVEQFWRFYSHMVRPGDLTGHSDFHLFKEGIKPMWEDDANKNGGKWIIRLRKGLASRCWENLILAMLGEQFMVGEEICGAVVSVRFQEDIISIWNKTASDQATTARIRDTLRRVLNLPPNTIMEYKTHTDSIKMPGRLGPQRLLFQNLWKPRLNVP
P49H: the “effect of a mutation on the interaction” value was “with no effect”.

In a further test the parent is B1. Conditions: with mlh1_human MLH1, P40692.
mlh1_human MLH1, P40692, sequence (P40692 whole entry): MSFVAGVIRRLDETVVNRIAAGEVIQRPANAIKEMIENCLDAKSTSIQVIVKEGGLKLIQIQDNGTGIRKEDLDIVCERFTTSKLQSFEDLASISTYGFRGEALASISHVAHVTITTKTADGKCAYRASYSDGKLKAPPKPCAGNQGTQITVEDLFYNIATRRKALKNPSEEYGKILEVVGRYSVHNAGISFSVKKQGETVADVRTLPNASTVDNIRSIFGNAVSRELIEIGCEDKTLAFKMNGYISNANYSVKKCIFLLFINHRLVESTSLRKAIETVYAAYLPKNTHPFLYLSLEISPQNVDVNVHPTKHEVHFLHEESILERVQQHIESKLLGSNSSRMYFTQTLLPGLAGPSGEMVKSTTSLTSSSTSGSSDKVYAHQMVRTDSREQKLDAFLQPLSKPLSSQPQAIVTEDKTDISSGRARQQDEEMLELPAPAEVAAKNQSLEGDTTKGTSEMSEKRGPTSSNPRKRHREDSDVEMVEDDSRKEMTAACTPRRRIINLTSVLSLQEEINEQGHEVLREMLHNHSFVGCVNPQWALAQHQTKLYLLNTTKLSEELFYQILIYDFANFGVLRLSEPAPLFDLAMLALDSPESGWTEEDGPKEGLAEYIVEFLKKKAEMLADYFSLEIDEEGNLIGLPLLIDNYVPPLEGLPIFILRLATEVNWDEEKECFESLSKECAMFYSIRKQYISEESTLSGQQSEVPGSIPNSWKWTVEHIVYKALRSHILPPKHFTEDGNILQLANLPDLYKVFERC
As to P49H, the “effect of a mutation on the interaction” value was “with no effect”.

The variants in a further test derive from B2. Conditions: with rim3a_human RIMBP3, Q9UFD9.
rim3a_human RIMBP3, Q9UFD9, sequence (Q9UFD9 whole entry): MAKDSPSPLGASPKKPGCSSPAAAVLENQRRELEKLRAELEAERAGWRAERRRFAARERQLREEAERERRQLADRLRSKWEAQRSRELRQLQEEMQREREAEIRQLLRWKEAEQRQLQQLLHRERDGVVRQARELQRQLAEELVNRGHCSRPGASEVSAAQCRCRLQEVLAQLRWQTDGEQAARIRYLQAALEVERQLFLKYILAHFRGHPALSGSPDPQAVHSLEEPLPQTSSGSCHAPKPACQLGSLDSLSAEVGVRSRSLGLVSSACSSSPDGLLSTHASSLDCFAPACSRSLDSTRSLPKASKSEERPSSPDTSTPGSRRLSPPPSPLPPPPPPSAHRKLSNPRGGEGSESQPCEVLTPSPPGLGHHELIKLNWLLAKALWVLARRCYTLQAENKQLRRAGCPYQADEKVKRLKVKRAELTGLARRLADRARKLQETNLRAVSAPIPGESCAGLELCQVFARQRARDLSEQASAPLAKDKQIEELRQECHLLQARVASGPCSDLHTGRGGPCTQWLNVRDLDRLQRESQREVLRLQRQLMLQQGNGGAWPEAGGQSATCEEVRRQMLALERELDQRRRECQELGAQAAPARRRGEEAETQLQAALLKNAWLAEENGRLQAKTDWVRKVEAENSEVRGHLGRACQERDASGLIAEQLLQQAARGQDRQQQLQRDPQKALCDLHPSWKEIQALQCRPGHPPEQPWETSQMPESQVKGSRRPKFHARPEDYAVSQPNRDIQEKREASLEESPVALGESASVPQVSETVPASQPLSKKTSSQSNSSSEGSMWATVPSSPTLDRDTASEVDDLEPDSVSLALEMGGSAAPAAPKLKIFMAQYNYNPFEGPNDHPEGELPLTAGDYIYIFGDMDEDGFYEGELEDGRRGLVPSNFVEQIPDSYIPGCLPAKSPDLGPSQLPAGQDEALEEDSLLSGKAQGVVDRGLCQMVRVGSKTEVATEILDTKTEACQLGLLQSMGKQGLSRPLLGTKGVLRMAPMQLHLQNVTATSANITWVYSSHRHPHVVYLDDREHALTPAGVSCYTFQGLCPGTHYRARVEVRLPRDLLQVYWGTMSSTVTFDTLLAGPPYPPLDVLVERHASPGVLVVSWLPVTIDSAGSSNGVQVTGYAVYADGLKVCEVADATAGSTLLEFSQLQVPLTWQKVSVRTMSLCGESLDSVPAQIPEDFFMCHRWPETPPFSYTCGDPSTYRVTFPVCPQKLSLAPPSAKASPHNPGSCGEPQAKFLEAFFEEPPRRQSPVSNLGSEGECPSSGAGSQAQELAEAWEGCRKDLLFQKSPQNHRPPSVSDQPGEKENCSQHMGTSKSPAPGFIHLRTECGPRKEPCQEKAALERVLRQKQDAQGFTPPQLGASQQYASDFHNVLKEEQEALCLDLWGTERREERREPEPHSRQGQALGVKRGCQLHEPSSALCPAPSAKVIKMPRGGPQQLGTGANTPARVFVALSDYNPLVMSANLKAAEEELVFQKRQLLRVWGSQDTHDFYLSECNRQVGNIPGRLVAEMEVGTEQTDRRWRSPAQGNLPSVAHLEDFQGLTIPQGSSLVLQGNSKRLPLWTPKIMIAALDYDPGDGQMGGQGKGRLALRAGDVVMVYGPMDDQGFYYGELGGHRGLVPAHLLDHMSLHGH
For the variant D6E, the “effect of a mutation on the interaction” value is “with no effect”.

The variants in another test derive from B3. Conditions: with tri69_human TRIM69, Q86WT6.
For A277T, the “effect of a mutation on the interaction” value is given as “with no effect”.

Variants of B4 are the subject of another test. Conditions: with if4e_human EIF4E.
Turning to G6D, the “effect of a mutation on the interaction” value is listed as “with no effect”.

In a further test the parent is B5. To be noted: with snf8_human SNF8, Q96H20.
I76V: the “effect of a mutation on the interaction” value is reported as “with no effect”.

Another test covers variants of B6. To be noted: with byst_human BYSL.
Take L12H: the “effect of a mutation on the interaction” value is “disrupting interaction strength”.

In the next test the parent is B7. Conditions: with rn111_human RNF111, Q6ZNA4.
Y40C: the “effect of a mutation on the interaction” value was “with no effect”.

Another test covers variants of B8. To be noted: with traf4_human TRAF4, Q9BUZ4.
For L67W, the “effect of a mutation on the interaction” value is on record as “with no effect”.
